Measurements from patent publication US20060057144A1.

Target: PsFcγRIIa (recombinant soluble human FcγRIIa protein produced in baculovirus-infected Sf-21 cells) (human) (UniProt P12318)
Assay: SPR competition; monomeric IgG (0 to 2 mg/ml) premixed with 50 ug/ml PsFcγRIIa, passed over immobilised IgG1

Substance: monomeric IgG (Sandaglobulin, available from Sandoz) (antibody)
- molar excess giving complete inhibition (fold molar excess): 6
